In patent US20140371142A1 (Johns Hopkins, published 2014):

B1: FLAG epitope-tagged mouse myonectin (CTRP15) (ligand)
chain: LGVPESAEPVGTHARPQPPGAELPAPPANSPPEPTIAHAHSVDPRDAWMLFVKQSDKGINSKRRSKARRLKLGLPGPPGPPGPQGPPGPFIPSEVLLKEFQLLLKGAVRQRESHLEHCTRDLTTPASGSPSRVPAAQELDSQDPGALLALLAATLAQGPRAPRVEAAFHCRLRRDVQVDRRALHELGIYYLPEVEGAFHRGPGLNLTSGQYTAPVAGFYALAATLHVALTEQPRKGPTRPRDRLRLLICIQSLCQHNASLETVMGLENSSELFTISVNGVLYLQAGHYTSVFLDNASGSSLTVRSGSHFSAILLGLDYKDDDDK
modifications: N-linked glycans (sites not given)
notes: Secreted into the supernatant of transfected HEK 293T cells; Disulfide-linked dimer on a non-reducing gel and multimeric on a native gel; also called FLAG-tagged myonectin; recombinant myonectin
B2: HA epitope-tagged CTRP5 (other, mouse)
chain: SPPLDDNKIPSLCPGQPGLPGTPGHHGSQGLPGRDGRDGRDGAPGAPGEKGEGGRPGLPGPRGEPGPRGEAGPMGAIGPAGECSVPPRSAFSAKRSESRVPPPADTPLPFDRVLLNEQGHYDPTTGKFTCQVPGVYYFAVHATVYRASLQFDLVKNGQSIASFFQYFGGWPKPASLSGGAMVRLEPEDQVWVQVGVGDYIGIYASIKTDSTFSGFLVYSDWHSSPVFAYPYDVPDYA
notes: Co-expressed with FLAG-tagged myonectin in HEK 293T cells; supernatants were used for immunoprecipitation
B3: HA epitope-tagged CTRP2 (other, mouse)
chain: DPMLGAFARRDFQKGGPQLVCSLPGPQGPPGPPGAPGSSGVVGRMGFPGKDGQDGQDGDRGDSGEEGPPGRTGNRGKQGPKGKAGAIGRAGPRGPKGVSGTPGKHGTPGKKGPKGKKGEPGLPGPCSCGSSRAKSAFSVAVTKSYPRERLPIKFDKILMNEGGHYNASSGKFVCSVPGIYYFTYDITLANKHLAIGLVHNGQYRIRTFDANTGNHDVASGSTILALKEGDEVWLQIFYSEQNGLFYDPYWTDSLFTGFLIYADQGDPNEVYPYDVPDYA
notes: as for B2
B4: HA epitope-tagged CTRP10 (other, mouse)
chain: HYEMLGTCRMICDPYSVAPAGGPAGAKAPPPGPSTAALEVMQDLSANPPPPFIQGPKGDPGRPGKPGPRGPPGEPGPPGPRGPPGEKGDSGRPGLPGLQLTTSAAGGVGVVSGGTGGGGDTEGEVTSALSAAFSGPKIAFYVGLKSPHEGYEVLKFDDVVTNLGNHYDPTTGKFSCQVRGIYFFTYHILMRGGDGTSMWADLCKNGQVRASAIAQDADQNYDYASNSVVLHLDSGDEVYVKLDGGKAHGGNNNKYSTFSGFLLYPDYPYDVPDYA
notes: as for B2

Legend:
[1] = target: the molecule itself; test: native gel immunoblot, FIG. 4 legend (self-association)
Procedure: Native gel electrophoresis. Non-denaturing, non-reducing gel electrophoresis was carried out as previously described (PLoS One, 5: e12765).
Myonectin (CTRP15) protein forms disulfide-linked oligomers and heteromeric complexes with other CTRPs. Consistent with the presence of a signal peptide, myonectin was robustly secreted into the conditioned medium when expressed in vitro (FIG. 4A). Secreted myonectin contains N-linked glycans; treatment with PNGase F (an N-glycosidase) reduced the apparent molecular weight of myonectin on immunoblot (FIG. 4B), confirming that one or more of the conserved Asn residues are glycosylated. In the absence of reducing agent (β-ME), myonectin migrated as a dimer on immunoblot (FIG. 4C), indicating the presence of intermolecular disulfide bond. […] Formation of oligomers is a biochemical feature shared by all CTRPs and proteins of the C1q family. […] Similarly, when co-expressed in mammalian cells (HEK 293T), myonectin formed heteromeric complexes with CTRP2 and CTRP12, and, to a lesser extent, with CTRP5 and CTRP10 (FIG. 4E).

[2] = target: B1; test: co-expression in HEK 293T cells, immunoprecipitation then immunoblot of supernatants (FLAG / HA tags)

binding result [2] | Binder | binding result [1]
 | B1 | binds
binds | B2 | 
binds | B3 | 
binds | B4 | 
